Legend:
[1] = molecular target: T1, extracellular portion of MET (EC-MET) (human, UniProt P08581); assay: ELISA; plates coated with 1 μg/mL MET or SEMA in PBS overnight at 4°C; blocked with PBS, 3% BSA, 20 mM EDTA, 0.05% Tween 20; mAbs from 64 μg/mL in 4-fold dilutions, 1 h room temperature; anti-IgG-HRP, OD650; conditions: both partners purified
T1 construct: MET, human, 908-amino acid extracellular portion; tags printed as HHHHHH and …; EC-MET was biotinylated with BirA for cell sorting only; also called recombinant ectodomain of MET; source: Expi293F, transient transfection, purified from supernatant (Ni-NTA); not shown: His6, C-terminal, kept; Avi-Tag, C-terminal, kept

[2] = molecular target: T2, SEMA, the ligand-binding domain of MET (Homo sapiens, UniProt P08581); assay: as above; conditions: both partners purified
T2 construct: source: Expi293F, transient transfection, purified from supernatant (Ni-NTA); not shown: His6, C-terminal, kept; Avi-Tag, C-terminal, kept
T2 sequence (P08581 27-515): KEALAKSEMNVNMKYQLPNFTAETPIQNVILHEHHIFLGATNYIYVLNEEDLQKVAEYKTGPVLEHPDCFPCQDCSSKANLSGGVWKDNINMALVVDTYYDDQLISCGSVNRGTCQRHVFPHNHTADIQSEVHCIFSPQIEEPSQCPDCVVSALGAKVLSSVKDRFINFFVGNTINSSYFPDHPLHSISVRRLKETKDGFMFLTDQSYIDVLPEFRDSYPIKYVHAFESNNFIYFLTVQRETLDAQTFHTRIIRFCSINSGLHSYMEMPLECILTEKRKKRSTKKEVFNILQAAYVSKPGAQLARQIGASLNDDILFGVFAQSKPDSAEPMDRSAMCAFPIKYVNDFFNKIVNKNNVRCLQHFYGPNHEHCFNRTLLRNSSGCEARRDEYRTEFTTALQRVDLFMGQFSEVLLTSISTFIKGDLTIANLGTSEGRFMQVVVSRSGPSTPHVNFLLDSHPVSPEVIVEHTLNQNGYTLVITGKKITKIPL

T1 sequence (P08581 25-932): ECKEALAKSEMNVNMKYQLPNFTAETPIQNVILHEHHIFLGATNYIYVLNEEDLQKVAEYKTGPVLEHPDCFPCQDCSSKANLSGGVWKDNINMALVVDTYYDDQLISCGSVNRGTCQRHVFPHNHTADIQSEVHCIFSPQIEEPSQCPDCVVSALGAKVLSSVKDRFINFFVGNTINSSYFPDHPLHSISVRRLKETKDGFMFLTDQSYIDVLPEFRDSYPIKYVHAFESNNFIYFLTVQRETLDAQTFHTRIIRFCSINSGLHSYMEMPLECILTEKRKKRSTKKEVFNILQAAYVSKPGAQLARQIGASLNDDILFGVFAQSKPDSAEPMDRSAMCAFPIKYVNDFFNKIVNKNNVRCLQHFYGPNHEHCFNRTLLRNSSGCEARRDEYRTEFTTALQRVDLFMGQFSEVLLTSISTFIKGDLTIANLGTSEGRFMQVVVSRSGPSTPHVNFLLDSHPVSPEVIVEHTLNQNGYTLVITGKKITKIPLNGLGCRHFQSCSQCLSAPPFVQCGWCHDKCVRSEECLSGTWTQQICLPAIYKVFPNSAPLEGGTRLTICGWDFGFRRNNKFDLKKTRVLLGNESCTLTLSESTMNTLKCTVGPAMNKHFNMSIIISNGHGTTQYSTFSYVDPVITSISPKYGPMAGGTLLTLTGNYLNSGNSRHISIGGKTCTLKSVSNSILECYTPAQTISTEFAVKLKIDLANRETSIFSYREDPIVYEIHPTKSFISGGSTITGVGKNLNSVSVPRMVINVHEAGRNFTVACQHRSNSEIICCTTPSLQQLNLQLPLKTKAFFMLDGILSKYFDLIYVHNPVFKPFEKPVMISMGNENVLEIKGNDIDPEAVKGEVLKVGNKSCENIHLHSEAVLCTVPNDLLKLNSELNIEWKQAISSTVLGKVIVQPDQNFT

binding result [1]: binds
binding result [2]: binds
B1: mAb 69B253 (antibody, V domains shown)
VH: EVQLVESGGALVQPGGSLRLSCAASGFTFSSYGMGWVRQAPGKGLEWVSVIIGSGGSTSYVDSVRGRFTISRDNSRNMVYLQMSSLTVDDTAVYYCAKAACGVGFCYRSHWGQGTRVTVSS
VL: SLSVSPGETVTLSCRASQSVSSNLAWYQHKPGQAPRLLIHDASTRATGIPVRFSGSGSGTDFTLTISSLQSEDFAVYYCQHYYNWPYGFAQGTKLEIK
notes: heavy chain V(D)J region; light chain VJ region; light chain constant region of the Ig expression vector; Cloned from a MET-enriched B cell of a cancer patient; detected with anti-IgG secondary antibody; source: Expi293F, cotransfected heavy and light chain vectors, purified (protein A)

Source: publication PMC12129041, “Unique characteristics of autoantibodies targeting MET in patients with breast and lung cancer” (JCI Insight, 2025)
